Source: US20240116985A1 (published 2024)
Starred links: 1 amine or outer side, 2 acyl side, 3 side chain; linkers in the order of their positions; H or OH if unused. Positions of bridges follow the written chain, without caps; N, C: chain ends. Non-standard residues stand in square brackets, D forms with d. Primed or numbered codes have the meaning given here. PyrS2(3) = (S)-3-amino-1-((pent-4-en-1-yloxy)carbonyl)pyrrolidine-3-carboxylic acid, stapling residue, C=CCCCOC(=O)N1CC[C@@](N[*:1])(C(=O)[*:2])C1; PyrS2″ = (S)-3-amino-1-((pent-4-en-1-yloxy)carbonyl)pyrrolidine-3-carboxylic acid (stapling residue), C=CCCCOC(=O)N1CC[C@@](N[*:1])(C(=O)[*:2])C1; PyrS3″ = (S)-3-amino-1-((hex-5-en-1-yloxy)carbonyl)pyrrolidine-3-carboxylic acid (stapling residue), C=CCCCCOC(=O)N1CC[C@@](N[*:1])(C(=O)[*:2])C1; B5(24) = 2-amino-2-(pent-4-en-1-yl)hept-6-enoic acid, 2,2-bis(4-pentenyl)glycine (stitching residue), C=CCCCC(CCCC=C)(N[*:1])C(=O)[*:2]; B5(21) = 2-amino-2-(pent-4-en-1-yl)hept-6-enoic acid, bis(4-pentenyl)glycine (stitching residue), C=CCCCC(CCCC=C)(N[*:1])C(=O)[*:2]; B5(6) = 2-amino-2-(pent-4-en-1-yl)hept-6-enoic acid (bis(4-pentenyl)glycine), stitching residue, C=CCCCC(CCCC=C)(N[*:1])C(=O)[*:2]; B5″ = 2,2-bis(4-pentenyl)glycine, stitching residue, C=CCCCC(CCCC=C)(N[*:1])C(=O)[*:2]; Phe(2-NO2) = N[C@@H](Cc1ccccc1[N+](=O)[O-])C(=O)O; Phe(2-Br) = N[C@@H](Cc1ccccc1Br)C(=O)O; Phe(2-CN) = N#Cc1ccccc1C[C@H](N)C(=O)O; Phe(2-OMe) = COc1ccccc1C[C@H](N)C(=O)O; Phe(3-F) = N[C@@H](Cc1cccc(F)c1)C(=O)O; Phe(4-F) = N[C@@H](Cc1ccc(F)cc1)C(=O)O; Phe(2-F) = N[C@@H](Cc1ccccc1F)C(=O)O; Bta = N[C@@H](Cc1csc2ccccc12)C(=O)O; αAllylPro = C=CC[C@@]1(C(=O)O)CCCN1; tBuAla = CC(C)(C)C[C@H](N)C(=O)O; 2Thi = N[C@@H](Cc1cccs1)C(=O)O; 3Thi = N[C@@H](Cc1ccsc1)C(=O)O; S8 = C=CCCCCCC[C@](C)(N)C(=O)O

T1: B-cat-Halo (UniProt P35222 1-781)
T1 sequence (looked up): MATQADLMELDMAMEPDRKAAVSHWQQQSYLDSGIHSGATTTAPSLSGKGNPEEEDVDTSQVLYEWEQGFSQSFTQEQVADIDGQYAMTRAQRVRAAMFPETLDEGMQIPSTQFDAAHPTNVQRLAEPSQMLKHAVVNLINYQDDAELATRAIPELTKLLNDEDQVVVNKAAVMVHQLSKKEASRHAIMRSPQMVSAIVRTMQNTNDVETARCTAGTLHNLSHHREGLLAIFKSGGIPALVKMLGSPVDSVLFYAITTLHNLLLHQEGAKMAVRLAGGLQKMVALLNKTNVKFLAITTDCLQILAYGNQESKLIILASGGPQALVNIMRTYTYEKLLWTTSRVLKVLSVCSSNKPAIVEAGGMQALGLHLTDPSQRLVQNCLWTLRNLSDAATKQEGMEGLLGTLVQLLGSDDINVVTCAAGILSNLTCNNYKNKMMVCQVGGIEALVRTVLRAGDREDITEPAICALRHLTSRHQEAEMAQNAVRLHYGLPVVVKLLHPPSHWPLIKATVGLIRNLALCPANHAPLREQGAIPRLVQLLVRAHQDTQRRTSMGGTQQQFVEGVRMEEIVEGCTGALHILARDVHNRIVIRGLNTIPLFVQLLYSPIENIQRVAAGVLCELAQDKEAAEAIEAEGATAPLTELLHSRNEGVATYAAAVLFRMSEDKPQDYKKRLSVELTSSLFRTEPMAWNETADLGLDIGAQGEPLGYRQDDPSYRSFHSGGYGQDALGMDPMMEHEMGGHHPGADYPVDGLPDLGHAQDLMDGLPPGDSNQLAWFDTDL

T2: full-length beta-Catenin (Uniprot ID P35222) (Homo sapiens (Human), UniProt P35222 1-781)
T2 construct: The assay protocol says full-length beta-Catenin (Uniprot ID P35222); tags are not described; also called bCat; B-Catenin
T2 sequence: T1 sequence (looked up)

B1: I-436 (peptide)
peptide: Ac-[αAllylPro]DA[B5(24)]DEAAFN[S8][Phe(2-Br)][Bta]Q-NH2
modifications: staple 1-4, 4-11
notes: Stapled (stitched) peptide with non-natural residues
B2: I-437 (peptide)
peptide: Ac-[αAllylPro]DA[B5(24)]DEAAFN[S8][Phe(2-OMe)][Bta]Q-NH2
modifications: staple 1-4, 4-11
notes: as for B1
B3: I-441 (peptide)
peptide: Ac-[αAllylPro]DA[B5(21)]DEAAFN[S8][Phe(2-NO2)][Bta]Q-NH2
modifications: staple 1-4, 4-11
notes: as for B1
B4: I-450 (peptide)
peptide: Ac-[αAllylPro]DA[B5(21)]DEAA[2Thi]Q[S8][Phe(3-F)]WQ-NH2
modifications: staple 1-4, 4-11
notes: as for B1
B5: I-453 (peptide)
peptide: Ac-[αAllylPro]DA[B5(21)]DEAA[Phe(2-F)]N[S8]F[Bta]Q-NH2
modifications: staple 1-4, 4-11
notes: as for B1
B6: I-454 (peptide)
peptide: Ac-[αAllylPro]DA[B5(21)]DEAA[Phe(3-F)]N[S8]F[Bta]Q-NH2
modifications: staple 1-4, 4-11
notes: as for B1
B7: I-455 (peptide)
peptide: Ac-[αAllylPro]DA[B5(21)]DEAA[Phe(4-F)]N[S8]F[Bta]Q-NH2
modifications: staple 1-4, 4-11
notes: as for B1
B8: I-462 (peptide)
peptide: Ac-[αAllylPro]DA[B5(21)]DEAAFN[PyrS2″]F[Bta]Q-NH2
modifications: staple 1-4, 4-11
notes: as for B1
B9: I-463 (peptide)
peptide: Ac-[αAllylPro]DA[B5(21)]DEAAFN[PyrS3″]F[Bta]Q-NH2
modifications: staple 1-4, 4-11; also: earlier-eluting HPLC staple isomer
notes: Staple isomer composition: earlier-eluting HPLC peak
B10: I-464 (peptide)
peptide: Ac-[αAllylPro]DA[B5(21)]DEAAFN[PyrS3″]F[Bta]Q-NH2
modifications: staple 1-4, 4-11; not fully specified; printed as Ac-PL3-Asp-Ala-B5-Asp-Glu-Ala-Ala-Phe-Asn-PyrS3-Phe-BztA-Gln-NH2
notes: Staple isomer composition: later-eluting HPLC peak
B11: I-469 (peptide)
peptide: Ac-[αAllylPro]DI[B5(6)]DDAAFN[S8]F[Bta]H-NH2
modifications: staple 1-4, 4-11; also: staple isomer composition: earlier-eluting HPLC peak
notes: as for B9
B12: I-467 (peptide)
peptide: Ac-[αAllylPro]DI[B5(6)]DDAAFN[S8]F[Bta]Q-NH2
modifications: staple 1-4, 4-11; also: staple isomer composition: earlier-eluting HPLC peak
notes: as for B9
B13: I-468 (peptide)
peptide: Ac-[αAllylPro]DI[B5(6)]DDAAFN[S8]F[Bta]Q-NH2
modifications: staple 1-4, 4-11; also: staple isomer composition: later-eluting HPLC peak
notes: as for B10

biological target: T1, B-cat-Halo; assay: cell-based or functional assay

Binder	NanoBRET Abs IC50 [nM]
Ac-[αAllylPro]D[tBuAla][B5″]DDAAFL[PyrS2(3)][Phe(2-CN)][Bta]Q-NH2 (staple 1-4, 4-11) [I-1203]	10000
Ac-[αAllylPro]D[tBuAla][B5″]NDAAFN[PyrS2(3)][3Thi][Bta]Q-NH2 (staple 1-4, 4-11) [I-1206]	27800
Ac-[αAllylPro]D[tBuAla][B5″]NDAAFL[PyrS2(3)][3Thi][Bta]Q-NH2 (staple 1-4, 4-11) [I-1207]	7500

biological target: T2, full-length beta-Catenin (Uniprot ID …); assay: fluorescence polarization competition: full-length beta-catenin + 5FAM-TCF4(10-53) probe, peptide titrated
Protocol: The plate was incubated protected from light for 60 minutes at 20° C. prior to read. Reads were performed on a CLARIOstar plate reader (BMG Labtech) in duplicate, and data were fitted to a 1:1 binding model with hill slope using an in-house script. All provided concentrations are final concentrations.

Binder	EC50 [nM]
B1	56
B2	26
B3	133
B4	3720
B5	1550
B6	125
B7	83.5
B8	28
B9	92
B10	57
B11	27
B12	44
B13	27
